Test results as given in PMC3989768, “Activation of the γ-Tubulin Complex by the Mto1/2 Complex” (Current Biology, 2014).

Molecular target: the molecule itself
Experiment: glycerol density-gradient centrifugation; material partially purified by Mto2-SZZ (IgG beads, TEV cleavage) from mto1[9A1-bonsai]-GFP or mto1Δ lysates, before and after 10-fold concentration; isokinetic glycerol gradient, 2.5 hr or 45 min; quantitative western blotting

B1: Mto2-S (the TEV protease cleavage product of Mto2-SZZ) (natural protein, Schizosaccharomyces pombe, UniProt Q9USP7 1-397, looked up)
chain: MSEHNYQSDREVAEDPFLNYEASANQLSSNSRESTPRGSPWRAGMRSASLMTEPLEDSMYSDNNYLDNGVSFTKDENPLYSPSWPSLADANVNSMKSNNAIQEHKAAKFVSEKSLEKVSTADNNLVLQELENLRERLNQVELQLSERPSSYLGYHNNLSPYRSPNSYPSLLPSTHSPHSPAPLSTMQTALMRLRTYHPSPIILKPVEQAVNHAITLVNTSPSSVVDALCRSLAELCLGLVQEAIDASILSQQESSNSLDLVRHTPPLNYTSSVDSSPQRMASDSYGRPSLHLNDPFPSVDLQSNELSHHNVRTTLFSDDSRFHSKIHTHSTPPSQMYSAASHFRYRSDPSTRHVSNSTNKSSLHPSPTSLRVAHPIIPQRASPASQSFPSLQDTPSP
notes: Mto2, Schizosaccharomyces pombe; source: S. pombe, partially purified (immunoglobulin G beads, TEV protease cleavage), enriched 3,400-fold
  binding result: binds
